Consider 15 variants from paper PMC9029656.

B1: reference wild-type (WT) peptide (unmodified NW peptide) prohibitin 1 (PHB1), endogenous in human blood monocytes [human (endogenous in blood monocytes)] (parent)
chain 1: NWYLPWLGTNDW
chain 2: MAAKVFESIGKFGLALAVAGGVVNSALYNVDAGHRAVIFDRFRGVQDIVVGEGTHFLIPWVQKPIIFDCRSRPRNVPVITGSKDLQNVNITLRILFRPVASQLPRIFTSIGEDYDERVLPSITTEILKSVVARFDAGELITQRELVSRQVSDDLTERAATFGLILDDVSLTHLTFGKEFTEAVEAKQVAQQEAERARFVVEKAEQQKKAAIISAEGDSKAAELIANSLATAGDGLIELRKLEAAEDIAYQLSRSRNITYLPAGQSVLLQLPQ

In this assay the parent is B1. Nature of the assay: flow cytometry competition assay on monocytes. The note with it: with prohibitin 1 (PHB1). A general note: In flow cytometry, cells or beads pass a laser one at a time.
Where [1] appears, read: competitor 2.5 µg/ml, NW peptide 0.05 µg/mL, parent: 50, read off a plot.
The mark [2] stands for this setting: competitor 5 µg/ml, NW peptide 0.05 µg/mL, parent: 82, read off a plot.
Where [3] appears, read: competitor 10 µg/ml, NW peptide 0.05 µg/mL, parent: 92, read off a plot.
Where [4] appears, read: competitor 20 µg/ml, NW peptide 0.05 µg/mL, parent: 95, read off a plot.
[5] abbreviates: competitor 2.5 µg/ml, experimental conditions as in Figure 7, parent: 45, read off a plot.
The mark [6] stands for this setting: competitor 5 µg/ml, experimental conditions as in Figure 7, parent: 60, read off a plot.
Where [7] appears, read: competitor 10 µg/ml, experimental conditions as in Figure 7, parent: 85, read off a plot.
Setting [8] is: competitor 20 µg/ml, experimental conditions as in Figure 7, parent: 93, read off a plot.

For the variant chain 1 N1A, the screen value under setting [1] amounted to 30%, the screen value under setting [2] was 45%, the screen value under setting [3] was determined as 67% and the screen value under setting [4] is 90%.

For chain 1 W2A, the screen value under setting [1] was determined as 0%, the screen value under setting [2] worked out at 0%, the screen value under setting [3] is 0% and the screen value under setting [4] turned out to be 2.5%.

Take chain 1 Y3A: the screen value under setting [1] turned out to be 23%, the screen value under setting [2] came out at 54%, the screen value under setting [3] stood at 56% and the screen value under setting [4] turned out to be 68%.

chain 1 W6A: the screen value under setting [1] turned out to be 0%, the screen value under setting [2] came out at 0%, the screen value under setting [3] was determined as 8% and the screen value under setting [4] came out at 12%.

Take chain 1 W12A: the screen value under setting [1] was 0%, the screen value under setting [2] came out at 9%, the screen value under setting [3] is 10% and the screen value under setting [4] amounted to 8%.

Take chain 1 L4A: the screen value is 0% under setting [1], 0% under setting [2], 2.5% under setting [3] and 0% under setting [4].

Consider chain 1 L4V L7V, for which the screen value was determined as 50% under setting [5], 55% under setting [6], 86% under setting [7] and 95% under setting [8].

chain 1 T9A: the screen value by setting is: under setting [1], 10%; under setting [2], 20%; under setting [3], 60%; under setting [4], 80%.

In the case of chain 1 N10A, the screen value runs as follows: under setting [1], 56%; under setting [2], 70%; under setting [3], 86%; under setting [4], 95%.

Regarding chain 1 G8A, the screen value was 0% under setting [1], 10% under setting [2], 45% under setting [3] and 65% under setting [4].

As for chain 1 W2F W6F W12F, the screen value came out at 7% under setting [6], 3% under setting [7] and 4% under setting [8].

chain 1 W2Y W6Y W12Y: the screen value by setting is: under setting [5], 5%; under setting [8], 3%.

Turning to chain 1 D11A, the screen value was found to be 47% under setting [1], 80% under setting [2], 85% under setting [3] and 98% under setting [4].

With chain 1 P5A, the screen value reads like this: under setting [1], 0%; under setting [2], 12%; under setting [3], 30%; under setting [4], 65%.

As to chain 1 L7A, the screen value under setting [1] was found to be 0%, the screen value under setting [2] is 0%, the screen value under setting [3] is 0% and the screen value under setting [4] stood at 2.5%.
